{
  "source": "paper PMC6101569",
  "about": "(Nucleic Acids Research, 2018)",
  "binders": {"B1": {"name": "APLF acidic domain (APLF^AD), Homo sapiens APLF residues 450-511, wild type (domain or fragment)", "chain": "DEDNDNVGQPNEYDLNDSFLDDEEEDYEPTDEDSDWEPGKEDEEKEDVEELLKEAKRFMKRK"}},
  "key": {"[1]": {"molecular_target": "(H3-H4)2 histone tetramer from Drosophila melanogaster (Drosophila melanogaster, UniProt P02299 2-136; P84040 2-103)", "test": "ITC"}, "[2]": {"molecular_target": "H2A-H2B histone dimer from Drosophila melanogaster (Drosophila melanogaster, UniProt P84051 2-121; P02283 2-123)", "test": "ITC"}},
  "data": [
    {"binder": "B1", "values": [
      {"measurement": "Kd", "setting": "[1]", "result": 3.81, "unit": "µM"},
      {"measurement": "Kd", "setting": "[2]", "result": 0.94, "unit": "µM"}
    ]}
  ]
}
